T1: recombinant human IL-1α (human, UniProt P01583 113-271)
T1 construct: Bought recombinant protein; also called rhIL-1α; hIL-1α
T1 sequence (looked up): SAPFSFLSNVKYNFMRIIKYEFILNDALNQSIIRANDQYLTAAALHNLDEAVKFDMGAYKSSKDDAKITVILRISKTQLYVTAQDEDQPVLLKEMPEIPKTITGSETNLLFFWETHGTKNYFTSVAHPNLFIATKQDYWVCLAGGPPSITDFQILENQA

B1: hIL-1α/βDVD2-Ig (bispecific antibody, human IgG1, kappa)
heavy: not shown
light: NIVLTQSPASLAVSLGQRATISCRASESVDSYGNSYMHWYQQKPGQPPKLLIYLASNLESGVPARFSGSGSRTDFTLTIDPVEADDAATYYCQQNNEDPFTFGSGTKLEIKRADAAPNIQMTQTTSSLSASLGDRVTISCRASQDISNCLNWYQQKPDGTVKLLIYYTSRLHSGVPSRFSGSGSGTDYSLTISNLEQEDIATYFCQQGKTLPYAFGGGTKLEINRTVAAPSVFIFPPSDEQLKSGTASVVCLLNNFYPREAKVQWKVDNALQSGNSQESVTEQDSKDSTYSLSSTLTLSKADYEKHKVYACEVTHQGLSSPVTKSFNRGEC
notes: 13F5.G5 V - linker (AKTTPP heavy, ADAAP light) - 3D12.E3 V - human Cγ1/Cκ; also called hIL-1a/bDVD2-Ig
B2: hIL-1α/βDVD1-Ig (bispecific antibody, human IgG1, kappa)
heavy: not shown
light: NIVLTQSPASLAVSLGQRATISCRASESVDSYGNSYMHWYQQKPGQPPKLLIYLASNLESGVPARFSGSGSRTDFTLTIDPVEADDAATYYCQQNNEDPFTFGSGTKLEIKRNIQMTQTTSSLSASLGDRVTISCRASQDISNCLNWYQQKPDGTVKLLIYYTSRLHSGVPSRFSGSGSGTDYSLTISNLEQEDIATYFCQQGKTLPYAFGGGTKLEINRTVAAPSVFIFPPSDEQLKSGTASVVCLLNNFYPREAKVQWKVDNALQSGNSQESVTEQDSKDSTYSLSSTLTLSKADYEKHKVYACEVTHQGLSSPVTKSFNRGEC
notes: 13F5.G5 variable domains fused directly (no linker) to the N-terminus of 3D12.E3 variable domains, human Cγ1/Cκ; also called hIL-1a/bDVD1-Ig

Key:
recombinant human IL-1α [1] = molecular target: T1, recombinant human IL-1α; experiment: SPR (Biacore)
Experimental: (§1) Purified DVD-Ig samples were diluted in HEPES-buffered saline for capture across goat anti-human IgG Fc specific reaction surfaces and injected over reaction matrices at a flow rate of […]. The association and dissociation rate constants, kon (M-1s-1) and koff (s−1) were determined under a continuous flow rate of […]. […] The equilibrium dissociation constant (M) of the reaction between DVD-Ig and rhIL1α/β was then calculated from the kinetic rate constants by the following formula: KD=koff/kon. Aliquots of rhIL1α/β samples were also simultaneously injected over a blank reference and reaction CM surface to record and subtract any nonspecific binding background to eliminate the majority of the refractive index change and injection noise. Surfaces were regenerated with two subsequent […] injections of 10 mM Glycine (pH 1.5) at a flow rate of […]. The anti-Fc antibody immobilized surfaces were completely regenerated and retained their full capture capacity over twelve cycles. The apparent stoichiometry of the captured DVD-Ig-rhIL1α/β complex was calculated under saturating binding conditions (steady-state equilibrium) using the following formula: […]
(§2) The affinity of the two DVD-Igs to hIL-1 as compared to the affinity of chimeric Abs to hIL-1 was similar as indicated by the evaluation of the stoichiometry to IL-1. Both chimeric Abs, being bivalent monospecific, bound to IL-1α and IL-1β on Biocore with a stoichiometry of 1.6 and 1.7, respectively. This is common for an IgG due to inter-molecular interference when antibodies are immobilized densely on the Biacore sense chip resulting in stoichiometry being in the range from 1.5 to 2.0.

recombinant human IL-1β [2] = molecular target: T2, recombinant human IL-1β (human, UniProt P01584 117-269); experiment: SPR (Biacore)
T2 construct: also called rhIL-1β; hIL-1β
Experimental: as §1, §2

recombinant human IL-1α [3] = molecular target: T1, recombinant human IL-1α; experiment: cell-based or functional assay
recombinant human IL-1β [4] = molecular target: T2, recombinant human IL-1β; experiment: cell-based or functional assay
recombinant human IL-1α [5] = molecular target: T1, recombinant human IL-1α; experiment: SPR (Biacore); hIL-1α as 1st antigen
Experimental: (§3) The equilibrium dissociation constant (M) of the reaction between DVD-Ig and rhIL1α/β was then calculated from the kinetic rate constants by the following formula: KD=koff/kon. Aliquots of rhIL1α/β samples were also simultaneously injected over a blank reference and reaction CM surface to record and subtract any nonspecific binding background to eliminate the majority of the refractive index change and injection noise. Surfaces were regenerated with two subsequent […] injections of 10 mM Glycine (pH 1.5) at a flow rate of […]. The anti-Fc antibody immobilized surfaces were completely regenerated and retained their full capture capacity over twelve cycles. The apparent stoichiometry of the captured DVD-Ig-rhIL1α/β complex was calculated under saturating binding conditions (steady-state equilibrium) using the following formula: […]
(§4) In addition, tetravalent dual-specific antigen binding of DVD-Ig was also analyzed by Biacore (Table 14). DVD-Ig was first captured via a goat anti-human Fc antibody on the Biacore sensor chip, and the first antigen was injected and a binding signal observed. As the DVD-Ig was saturated by the first antigen, the second antigen was then injected and the second signal observed. This was done either by first injecting IL-1β then IL-1α or by first injecting IL-1α followed by IL-1β for DVD2-Ig. In either sequence, a dual-binding activity was detected. […]

recombinant human IL-1β [6] = molecular target: T2, recombinant human IL-1β; experiment: SPR (Biacore); hIL-1β as 1st antigen
Experimental: as §3, §4

recombinant human IL-1α [7] = molecular target: T1, recombinant human IL-1α; experiment: SPR (Biacore); hIL-1α as 2nd antigen, DVD2-Ig already occupied by hIL-1β
Experimental: as §3, §4

recombinant human IL-1β [8] = molecular target: T2, recombinant human IL-1β; experiment: SPR (Biacore); hIL-1β as 2nd antigen, DVD2-Ig already occupied by hIL-1α
Experimental: as §3, §4

recombinant human IL-1α [9] = molecular target: T1, recombinant human IL-1α; experiment: cell-based or functional assay; remark: listed apart in the source
recombinant human IL-1β [10] = molecular target: T2, recombinant human IL-1β; experiment: cell-based or functional assay; remark: listed apart in the source
recombinant human IL-1α [11] = molecular target: T1, recombinant human IL-1α; experiment: SPR (Biacore), saturating conditions
recombinant human IL-1β [12] = molecular target: T2, recombinant human IL-1β; experiment: SPR (Biacore), saturating conditions
recombinant human IL-1α [13] = molecular target: T1, recombinant human IL-1α; experiment: SPR (Biacore); hIL-1α as 2nd antigen, DVD1-Ig already occupied by hIL-1β
Experimental: as §3, §4

recombinant human IL-1β [14] = molecular target: T2, recombinant human IL-1β; experiment: SPR (Biacore); hIL-1β as 2nd antigen, DVD1-Ig already occupied by hIL-1α
Experimental: as §3, §4

recombinant human IL-1α [15] = molecular target: T1, recombinant human IL-1α; experiment: SPR (Biacore 3000); antibody captured via goat anti-human IgG Fc, antigen injected, 1:1 Langmuir fit
Experimental: (§5) The kinetics of DVD-Ig binding to rhIL1-α and rhIL1-β was determined by surface plasmon resonance-based measurements with a Biacore 3000 instrument (Biacore AB, Uppsala, Sweden) using HBS-EP (10 mM HEPES, pH 7.4, 150 mM NaCl, 3 mM EDTA, and 0.005% surfactant P20) at 25° C. All chemicals were obtained from Biacore AB (Uppsala, Sweden) or otherwise from a different source as described herein. Approximately, 5000 RU of goat anti-human IgG Fcγ fragment specific polyclonal antibody (Pierce Biotechnology Inc, Rockford, Ill.) diluted in 10 mM sodium acetate (pH 4.5) was directly immobilized across a CM5 research grade biosensor chip using a standard amine coupling kit according to manufacturer's instructions and procedures at 25 mg/ml. Unreacted moieties on the biosensor surface were blocked with ethanolamine. Modified carboxymethyl dextran surface in flowcell 2 and 4 was used as a reaction surface. Unmodified carboxymethyl dextran without goat anti-human IgG in flow cell 1 and 3 was used as the reference surface. For kinetic analysis, rate equations derived from the 1:1 Langmuir binding model were fitted simultaneously to association and dissociation phases of all ten injections (using global fit analysis) using the Bioevaluation 4.0.1 software. Purified DVD-Ig samples were diluted in HEPES-buffered saline for capture across goat anti-human IgG Fc specific reaction surfaces and injected over reaction matrices at a flow rate of […]. The association and dissociation rate constants, kon (M-1s-1) and koff (s−1) were determined under a continuous flow rate of […]. […] The equilibrium dissociation constant (M) of the reaction between DVD-Ig and rhIL1α/β was then calculated from the kinetic rate constants by the following formula: KD=koff/kon. Aliquots of rhIL1α/β samples were also simultaneously injected over a blank reference and reaction CM surface to record and subtract any nonspecific binding background to eliminate the majority of the refractive index change and injection noise. Surfaces were regenerated with two subsequent […] injections of 10 mM Glycine (pH 1.5) at a flow rate of […]. The anti-Fc antibody immobilized surfaces were completely regenerated and retained their full capture capacity over twelve cycles.

recombinant human IL-1β [16] = molecular target: T2, recombinant human IL-1β; experiment: as above
Experimental: as §5

Binder	fold lower affinity than the chimeric 3D12.E3 Ab (recombinant human IL-1α [1])	fold higher affinity than DVD1-Ig (recombinant human IL-1β [2])	dual-inhibition activity, MRC-5 assay with equal amounts of hIL-1α and hIL-1β both present (recombinant human IL-1α [3])	dual-inhibition activity, MRC-5 assay with equal amounts of hIL-1α and hIL-1β both present (recombinant human IL-1β [4])	Stoichiometry hIL1α:DVD-Ig (recombinant human IL-1α [5])	Stoichiometry hILβ:DVD-Ig (recombinant human IL-1β [6])	Stoichiometry hIL1α:DVD-Ig (recombinant human IL-1α [7])	Stoichiometry hILβ:DVD-Ig (recombinant human IL-1β [8])	Potency (IC50) M, MRC-5 bioassay (recombinant human IL-1α [9])	Potency (IC50) M, MRC-5 bioassay (recombinant human IL-1β [10])	Stoichiometry (recombinant human IL-1α [11])	Stoichiometry (recombinant human IL-1β [12])	Stoichiometry hIL1α:DVD-Ig (recombinant human IL-1α [13])	Stoichiometry hILβ:DVD-Ig (recombinant human IL-1β [14])	Kd (recombinant human IL-1α [15])	koff (recombinant human IL-1α [15])	kon (recombinant human IL-1α [15])	Kd (recombinant human IL-1β [16])	koff (recombinant human IL-1β [16])	kon (recombinant human IL-1β [16])
B1	3 fold	3 fold	1.2 nM	1.2 nM	1.8	1.6	1.2	1.3	–	–	–	–	–	–	–	–	–	–	–	–
B2	2 to 3 fold	–	2.2 nM	2.2 nM	2.3	1.5	–	–	2.3 nM	3.1 nM	1.8	1.5	1.1	1	2.83 nM	0.000105 s⁻¹	37000 M⁻¹ s⁻¹	2.6 nM	0.00159 s⁻¹	609000 M⁻¹ s⁻¹

Source: patent publication US20140154256A1 (published 2014)
